Consider one molecule from patent US20220196676A1 (NORDIC BIOSCIENCE A S, published 2022).

Assay [1] addresses T1, elongated peptide SFSGYLLYPMA
T1 construct: Selection peptide with one more alanine at the C-terminus; synthetic (Chinese Peptide Company); also called elongated peptide (one additional amino acid)
T1 peptide: SFSGYLLYPMA
The assay is described as follows: C8-C competitive ELISA with HRP-labelled 13G5. As to the method:
(§1) ELISA-plates used for the assay development were Streptavidin-coated from Roche (cat.: 11940279). All ELISA plates were analyzed with the ELISA reader from Molecular Devices, SpectraMax M, (CA, USA). We labelled the selected monoclonal antibody with horseradish peroxidase (HRP) using the Lightning link HRP labelling kit according to the instructions of the manufacturer (Innovabioscience, Babraham, Cambridge, UK). A 96-well streptavidin plate was coated with biotinylated synthetic peptide biotin-[…] (SEQ ID NO: 25) (Chinese Peptide Company, China) dissolved in assay buffer (50 mM Trizma, 0.46 mM Tween 20, 0.08 mM Phenol Red, 34 mM NaCl, 0.36% Bronidox L5, 1% BSA, pH 7.4) and incubated 30 minutes at 20° C. 20 μL of standard peptide or samples diluted in assay buffer were added to appropriate wells, followed by 100 μL of HRP conjugated monoclonal antibody 13G5, and incubated 20 hour at 4° C. Finally, 100 μL tetramethylbenzinidine (TMB) (Kem-En-Tec cat.4380H) was added and the plate was incubated 15 minutes at 20° C. in the dark. All the above incubation steps included shaking at 300 rpm. After each incubation step the plate was washed five times in washing buffer (20 mM Tris, 50 mM NaCl). The TMB reaction was stopped by adding 100 μL of stopping solution (1% H₂SO₄) and measured at 450 nm with 650 nm as the reference. […]
(In an ELISA, binding on a coated surface is turned into a signal by an enzyme label.)

The target in assay [2] is T2, nonsense peptide YLSGPFMSYL
T2 construct: Control peptide of the C8-C specificity test; also called nonsense peptide (C8-C)
T2 peptide: YLSGPFMSYL
The experiment in a line: C8-C competitive ELISA with HRP-labelled 13G5. As to the method:
as §1

B1: monoclonal antibody NB683-13G5 (antibody, mouse IgG1, kappa, V domains shown)
VH: EVLLQQSGPELEKPGASVKISCKASGYSLTDYNMNWVKQSDGKSLEWIGIIDPNYGDTNYNQKFKDKATLTVDKSSNTAHMQLKSLTSDDSAVYYCARSGYYGNSHYGLDYWGQGTSVTVSS
VL: QIVLTQSPAIMSASPGERVTMTCSVSSSVGYIHWYQQKSGTSPKRWISDTSKLASGVPSRFSGSGSGASYSLTIDRVEAEDAATYYCQQWSSNPPTFGGGTKLEMKR
notes: also called clone 13G5; monoclonal antibody 13G5
Regarding B1, the binding result in assay [1] and in assay [2] was “no binding” throughout.
